The nature of series [1]: Laccase activity under various pH conditions, SGZ substrate. It counts as biochemical. Conditions: 30° C., 1 min. As to the method:
(§1) Next, the laccase activities of Lcc35 under various pH conditions were determined, following the method described in Lu et al., Appl. Microbiol. Biotechnol., 2007, 74, (6), 1232-1239. 0.01 ml of the Lcc35-containing solution was mixed with (i) 0.49 ml of a 50 mM reaction buffer of glycine-HCl (pH 2.0 to 3.0), sodium acetate (pH 4.0 to 6.0), or sodium phosphate (pH 7.0 to 8.0) and (ii) 0.5 ml of a substrate solution containing 2 mM ABTS, 1 mM [N,N′-bis(3,5-dimethoxy-4-hydroxybenzylidene)hydrazine] (SGZ), or 0.04% RBBR. After being incubated at 30° C. for 1 min (when ABST or SGZ was the substrate) or for 4 hours (when RBBR was the substrate), each of the reaction mixtures was examined with a spectrophotometer to determine its optical density at 420 nm (when ABST was the substrate), at 530 nm (when SGZ was the substrate), or at 585 nm (when RBBR was the substrate). One unit of laccase activity was defined as the amount of Lcc35 that oxidized 1 μmol substrate per min.

The nature of series [2]: Laccase activity at various temperatures. It counts as biochemical. Conditions: ABTS substrate, sodium acetate buffer pH 5.0, 1 minute, 25-90° C. As to the method:
The laccase activity of Lcc35 was determined at various temperatures (i.e., ranging from 25-90° C.), using ABST as the substrate. The Lcc35-containing solution was incubated with ABST and a sodium acetate buffer (pH 5.0) for 1 minute and the enzymatic activity was examined afterwards.

The nature of series [3]: Laccase activity under various pH conditions, RBBR de-colorization. The series is classed as biochemical. Conditions: RBBR substrate, 30° C., 4 hours. As to the method:
as §1

The nature of series [4]: ABTS overlay activity assay on basic-native PAGE gel. It counts as biochemical. Conditions: ABTS reaction buffer 1 mM, pH 3, room temperature. As to the method:
The laccase activity of this 55kDa protein was determined by an [2,2-azinobis(3-ethylbenzathiazoline-6-sulfonic acid)] (ABTS) overlay activity assay. See Lebendiker M BASIC-NATIVE GEL Protocol, wolfson.huji.ac.il/purification/Protocols/PAGE_Basic.html. A basic-native PAGE gel containing the 55 kDa protein was incubated in an ABTS reaction buffer (1 mM, pH 3) at room temperature.

A short description of series [5]: Activity comparison with T. versicolor laccase, SGZ assay. To be noted: SGZ substrate; laccase amount by SDS-PAGE and ImageQuant TL 7.0. The series is classed as biochemical. As to the method:
as §1
(§2) The laccase activity of Lcc35 was compared with Trametes versicolor laccase (provided by Fluka Co.), using either ABST or SGZ as the substrate according to the methods described above.

Series [6] in a line: Thermal stability of Lcc35. It counts as physicochemical. Conditions: pH 6.0, 30-70° C. for 10, 30 or 60 minutes. On the procedure:
To determine thermal stability of Lcc35, the enzyme solution was incubated under pH 6.0 at various temperatures (i.e., 30° C., 40° C., 50° C., 60° C., and 70° C.) for 10, 30, or 60 minutes.

Series [7] in a line: Activity comparison with T. versicolor laccase, ABTS assay. It counts as biochemical. On the procedure:
as §1, §2

Series [8] is described as follows: Enzymatic activity of purified Lcc35. The series is classed as biochemical. Conditions: isolated as in Example 1; culture with 1 mM 4-hydroxybenzoic acid. As to the method:
To isolate the laccase from R. microporus BCRC 35318, eight-day-old mycelial disks (8 mm in diameter) collected from the PDA plate mentioned above were inoculated into a basal medium containing (per liter) 10 g glucose, 0.22 g ammonium tartrate, 0.9 g K2HPO4, 0.1 g KH2PO4, 0.05 g MgSO4.7H2O, 0.5 g CaCl2, 0.01 g Thiamine HCl, and 10 ml solution (0.08 g CuSO4.5H2O, 0.07 g MnSO4.4H2O, 4.3 g ZnSO4.7H2O and 0.05 g FeSO4.7H2O per liter). The pH of the medium was adjusted to 5.5. After being cultured for 10 days at 30° C. in a rotary shaker with a speed setting of 125 rpm, the supernatant of the fungal culture thus obtained was collected and passed through a […] filter (Nalgene) to remove fungal cells. The filtrate was mixed with 100% ammonium sulfate for protein precipitation. The precipitated proteins were dissolved in 40 ml of a 10 mM sodium acetate buffer (pH 6.0) and the resultant solution was dialyzed against the same acetate buffer overnight to remove co-precipitated ammonium sulfate and then concentrated to 4 ml by ultracentrifugal filteration with a molecular cutoff of 10 kDa (Amicon).
See Cambria et al., Protein Expr. Purif. 2000, 18, (2), 141-147; and Liu et al., Appl. Microbiol. Biotechnol. 2003, 63, (2), 174-181. Following the isolation process described in Example 1 above, purified Lcc35 was obtained with a recovery rate of about 55% and an enzymatic activity of 289.8 U/ml.

A short description of the next series: pH stability of Lcc35. Conditions: incubated at 30° C. for 20 hours, ABTS substrate. The series is classed as physicochemical. On the procedure: The Lcc35 solution was incubated under various pH conditions at 30° C. 20 hours later, the laccase activity in the solution was determined, using ABST as the substrate.
Series [9] in a line: Optimal pH with artificial lignin on agar micro-titer plate. The series is classed as biochemical. To be noted: 0.1% lignin substrate, 30° C., 4 hr. As to the method:
The optimal pH of Lcc35 was also examined using an artificial lignin as a substrate, as follows. Each of the reaction buffers listed above was mixed with 0.1% lignin (Sigma #471003) and the mixture was placed in wells of an agar micro-titter plate. 10 μl of the Lcc35-containing suspension was placed at the center of each well. The agar plate was incubated at 30° C. for 4 hr to allow degradation of the artificial lignin by Lcc35.

Series [10] can be described thus: Isoelectric focusing with PhastGel IEF 3-9. It counts as physicochemical. As to the method: First, the isoelectric focusing point of Lcc35 was determined with PhastGel IEF 3-9 (GE Healthcare), following the method described in Hackler et al., Anal. Biochem. 1995, 230, (2), 281-289. Briefly, the Lcc35-containing solution mentioned above was loaded on a PhastGel IEF 3-9 gel.

Series [11] is described as follows: Laccase activity under various pH conditions, ABTS substrate. To be noted: 30° C., 1 min. The series is classed as biochemical. As to the method:
as §1

We go through 1 molecule from patent publication US20100184186A1, “NOVEL RIGIDOPORUS MICROPORUS LACCASE” (Academia Sinica, priority 2009, published 2010).

B1: Lcc35: novel laccase isolated from R. microporus BCRC 35318; mature form SEQ ID NO:1, precursor SEQ ID NO:2 (protein)
chain: SVGPVADIPIVNANLSPDGFTRTTVLAGGTFPGPLIVGNKGDNFKLNVVDQLTDANQLKTTTIHWHGFFQHGTNWADGPAFVNQCPIASGNSFLYDFSAADQAGTFWYHSHLSTQYCDGLRGAFVVYDPSDPNASLYDVDNESTVITLADWYHTLARLGARFPTPDSTLINGLGRFAGGPASDLSVITVESGKRYRFRLVSISCDPNYTFSIDGHDMTIIEVNGINHDALSVDSIQIFAGQRYSFVLNANQAVGNYWIRANPNIGTRGFSGGINSAILRYVGADAVEPTTSQGTSTKPLVETNLHPSQNPGAVGSPTPGGVDLALNLALGFAGGSFTINGATFTSPTVPVLLQILSGAQSATDLLPSGSVFTLPGDSTIEISMPAGVAGGPHPFHLHGHAFDVVRASGSSTYNYANPVRRDVVSLGAAGDNVTIRFKTDNPGPWFLHCHIDWHLEAGLAIVFAEDTPNTAAINPVPQAWSDLCPIYNALAESDH
modifications: RIGIDOPORUS MICROPORUS
In the case of B1, the “pH of highest laccase activity” value is on record as 5-6 in series [1], 5-6 in series [3], 5-6 in series [9] and 3-5 in [11]. Besides, in series [2], the “temperature of highest laccase activity” value stood at 70 °C. The “laccase activity (color change around the 55 kDa band)” value in series [4] is reported as “high laccase activity”. In addition, in [5], the “SGZ assay, laccase-specific activity” value amounted to 1700 U mg^−1. Besides, in [6], the “temperature below which Lcc35 was stable” value is “below 50 °C”. Moreover, the “laccase-specific activity relative to T. versicolor laccase” value in series [7] (ABTS or SGZ as the substrate) is given as 2-3 fold. Also, the “ABTS assay, laccase-specific activity” value in series [7] (ABTS substrate, laccase amount by SDS-PAGE and ImageQuant TL 7.0) worked out at 3800 U mg^−1. In addition, the “enzymatic activity of purified Lcc35” value in [8] is 289.8 U/ml. Further, in the series “pH stability of Lcc35”, the “pH at which Lcc35 was more stable” value was 6. Besides, in series [10], the pI value stood at 3.98.
